Article PMC7747717 (Nature Communications, 2020)

How the values were obtained:
Test in all cases: cryo-EM structure; endogenous human Pol III purified from HeLa POLR1C-GFP cells, not cross-linked, apo, 4.0 Å
Details in all cases: both partners purified
[1] = target: T1, RPC5, subunit of purified human Pol III (human (endogenous in HeLa), UniProt Q9NVU0 1-708)
T1 construct: RPC5, subunit of the TFIIF-like RPC4/5 heterodimer of RNA polymerase III, human, endogenous; the C-terminal extension (RPC5EXT) was not visible in the EM map; also called POLR3E; source: endogenous, HeLa, purified within Pol III
T1 sequence (looked up): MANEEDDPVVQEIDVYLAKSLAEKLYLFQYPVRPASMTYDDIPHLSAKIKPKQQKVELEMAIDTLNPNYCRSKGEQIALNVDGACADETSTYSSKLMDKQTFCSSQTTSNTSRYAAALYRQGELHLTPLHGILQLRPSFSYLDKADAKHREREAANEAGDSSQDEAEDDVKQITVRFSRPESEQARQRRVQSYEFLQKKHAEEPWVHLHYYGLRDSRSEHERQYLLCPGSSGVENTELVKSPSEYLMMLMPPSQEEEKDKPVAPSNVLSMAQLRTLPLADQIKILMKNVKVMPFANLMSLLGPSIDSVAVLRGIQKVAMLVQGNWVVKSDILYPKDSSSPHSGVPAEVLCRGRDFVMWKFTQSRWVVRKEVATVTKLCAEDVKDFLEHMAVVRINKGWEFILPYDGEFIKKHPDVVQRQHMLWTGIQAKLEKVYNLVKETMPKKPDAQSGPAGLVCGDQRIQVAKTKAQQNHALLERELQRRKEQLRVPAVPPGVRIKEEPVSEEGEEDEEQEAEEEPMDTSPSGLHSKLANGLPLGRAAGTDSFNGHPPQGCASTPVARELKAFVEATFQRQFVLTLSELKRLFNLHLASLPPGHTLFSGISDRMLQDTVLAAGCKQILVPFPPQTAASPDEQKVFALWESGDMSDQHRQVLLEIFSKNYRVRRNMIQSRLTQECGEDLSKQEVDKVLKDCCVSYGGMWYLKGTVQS

[2] = target: RPABC1, subunit of purified human Pol III (human (endogenous in HeLa), UniProt P19388 1-210)
[3] = target: T2, RPC8, stalk subunit of purified human Pol III (human (endogenous in HeLa), UniProt Q9Y535 1-204)
T2 construct: RPC8, stalk subunit of RNA polymerase III, human, endogenous; source: endogenous, HeLa, purified within Pol III
T2 sequence (looked up): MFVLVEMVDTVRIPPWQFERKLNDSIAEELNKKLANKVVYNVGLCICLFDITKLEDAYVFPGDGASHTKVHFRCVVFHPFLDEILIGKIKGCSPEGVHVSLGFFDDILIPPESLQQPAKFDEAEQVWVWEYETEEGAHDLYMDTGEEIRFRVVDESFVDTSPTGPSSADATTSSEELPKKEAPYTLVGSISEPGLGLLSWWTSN

B1: RPC4, subunit of purified human Pol III (natural protein, human (endogenous in HeLa), UniProt P05423 1-398, looked up)
chain: MSEGNAAGEPSTPGGPRPLLTGARGLIGRRPAPPLTPGRLPSIRSRDLTLGGVKKKTFTPNIISRKIKEEPKEEVTVKKEKRERDRDRQREGHGRGRGRPEVIQSHSIFEQGPAEMMKKKGNWDKTVDVSDMGPSHIINIKKEKRETDEETKQILRMLEKDDFLDDPGLRNDTRNMPVQLPLAHSGWLFKEENDEPDVKPWLAGPKEEDMEVDIPAVKVKEEPRDEEEEAKMKAPPKAARKTPGLPKDVSVAELLRELSLTKEEELLFLQLPDTLPGQPPTQDIKPIKTEVQGEDGQVVLIKQEKDREAKLAENACTLADLTEGQVGKLLIRKSGRVQLLLGKVTLDVTMGTACSFLQELVSVGLGDSRTGEMTVLGHVKHKLVCSPDFESLLDHKHR
notes: RPC4, subunit of the TFIIF-like RPC4/5 heterodimer of RNA polymerase III, human, endogenous; also called POLR3D; source: endogenous, HeLa, purified within Pol III
**Q.** Does B1 bind [1]?
**A.** binds

B2: RPC1, largest subunit of purified human Pol III (natural protein)
chain: MVKEQFRETDVAKKISHICFGMKSPEEMRQQAHIQVVSKNLYSQDNQHAPLLYGVLDHRMGTSEKDRPCETCGKNLADCLGHYGYIDLELPCFHVGYFRAVIGILQMICKTCCHIMLSQEEKKQFLDYLKRPGLTYLQKRGLKKKISDKCRKKNICHHCGAFNGTVKKCGLLKIIHEKYKTNKKVVDPIVSNFLQSFETAIEHNKEVEPLLGRAQENLNPLVVLNLFKRIPAEDVPLLLMNPEAGKPSDLILTRLLVPPLCIRPSVVSDLKSGTNEDDLTMKLTEIIFLNDVIKKHRISGAKTQMIMEDWDFLQLQCALYINSELSGIPLNMAPKKWTRGFVQRLKGKQGRFRGNLSGKRVDFSGRTVISPDPNLRIDEVAVPVHVAKILTFPEKVNKANINFLRKLVQNGPEVHPGANFIQQRHTQMKRFLKYGNREKMAQELKYGDIVERHLIDGDVVLFNRQPSLHKLSIMAHLARVKPHRTFRFNECVCTPYNADFDGDEMNLHLPQTEEAKAEALVLMGTKANLVTPRNGEPLIAAIQDFLTGAYLLTLKDTFFDRAKACQIIASILVGKDEKIKVRLPPPTILKPVTLWTGKQIFSVILRPSDDNPVRANLRTKGKQYCGKGEDLCANDSYVTIQNSELMSGSMDKGTLGSGSKNNIFYILLRDWGQNEAADAMSRLARLAPVYLSNRGFSIGIGDVTPGQGLLKAKYELLNAGYKKCDEYIEALNTGKLQQQPGCTAEETLEALILKELSVIRDHAGSACLRELDKSNSPLTMALCGSKGSFINISQMIACVGQQAISGSRVPDGFENRSLPHFEKHSKLPAAKGFVANSFYSGLTPTEFFFHTMAGREGLVDTAVKTAETGYMQRRLVKSLEDLCSQYDLTVRSSTGDIIQFIYGGDGLDPAAMEGKDEPLEFKRVLDNIKAVFPCPSEPALSKNELILTTESIMKKSEFLCCQDSFLQEIKKFIKGVSEKIKKTRDKYGINDNGTTEPRVLYQLDRITPTQVEKFLETCRDKYMRAQMEPGSAVGALCAQSIGEPGTQMTLKTFHFAGVASMNITLGVPRIKEIINASKAISTPIITAQLDKDDDADYARLVKGRIEKTLLGEISEYIEEVFLPDDCFILVKLSLERIRLLRLEVNAETVRYSICTSKLRVKPGDVAVHGEAVVCVTPRENSKSSMYYVLQFLKEDLPKVVVQGIPEVSRAVIHIDEQSGKEKYKLLVEGDNLRAVMATHGVKGTRTTSNNTYEVEKTLGIEAARTTIINEIQYTMVNHGMSIDRRHVMLLSDLMTYKGEVLGITRFGLAKMKESVLMLASFEKTADHLFDAAYFGQKDSVCGVSECIIMGIPMNIGTGLFKLLHKADRDPNPPKRPLIFDTNEFHIPLVT
notes: RPC1, largest subunit of RNA polymerase III, human, endogenous; also called POLR3A; source: endogenous, HeLa, purified within Pol III
**Q.** Does B2 bind [2]?
**A.** binds

B3: RPC9, stalk subunit of purified human Pol III (natural protein)
chain: not shown
notes: RPC9, stalk subunit of RNA polymerase III, human, endogenous; source: endogenous, HeLa, purified within Pol III
**Q.** Does B3 bind [3]?
**A.** binds
